According to PMC3565967, “Biochemical Similarities and Differences between the Catalytic [4Fe-4S] Cluster Containing Fumarases FumA and FumB from Escherichia coli” (PLoS ONE, 2013):

What was measured:
FumB = biological target: T1, FumB (Escherichia coli, UniProt P14407); test: fumarate depletion at […] nm, Michaelis-Menten fit; type: biochemical; conditions: anaerobic, 100 mM EPPS pH 8, 5% glycerol, 0.5 mM DTT, 37 °C; regenerated [4Fe-4S] enzyme
T1 construct: full length, N-terminal His-tag (pET15b, gene from plasmid pGS56), expressed in E. coli BL21(DE3); [4Fe-4S] cluster regenerated with Fe2+ and L-cysteine; homodimer circa 120 kDa

FumA = FumA (Escherichia coli, UniProt P0AC33); test: fumarate depletion at […] nm, Michaelis-Menten fit; type: biochemical; conditions: anaerobic, 100 mM EPPS pH 8, 5% glycerol, 0.5 mM DTT, 37 °C; regenerated [4Fe-4S] enzyme
purified protein [1] = substrate: O=C(O)C(O)C(O)C(=O)O; test: purified protein; conditions: anaerobic, 100 mM EPPS pH 8, 5% glycerol, 0.5 mM DTT, 100 µM NADH, 1 mM MgCl2, 37 °C, regenerated [4Fe-4S] enzyme
purified protein [2] = substrate: O=C(O)C[C@H](O)C(=O)O; test: purified protein; conditions: anaerobic, 100 mM EPPS pH 8, 5% glycerol, 0.5 mM DTT, 37 °C, regenerated [4Fe-4S] enzyme
[3] = biological target: the molecule itself; test: SEC; Superdex 200, to estimate the molecular weight of the native enzyme; data not shown

## O=C(O)/C=C/C(=O)O [fumarate]
FumB
  Km: 320 ± 40 µM
FumA
  Km: 460 ± 80 µM

B1: FumA (Escherichia coli K-12) (protein)
chain: SNKPFHYQAPFPLKKDDTEYYLLTSEHVSVSEFEGQEILKVAPEALTLLARQAFHDASFMLRPAHQQQVADILRDPEASENDKYVALQFLRNSDIAAKGVLPTCQDTGTAIIVGKKGQRVWTGGGDEAALARGVYNTYIEDNLRYSQNAPLDMYKEVNTGTNLPAQIDLYAVDGDEYKFLCIAKGGGSANKTYLYQETKALLTPGKLKNYLVEKMRTLGTAACPPYHIAFVIGGTSAETNLKTVKLASAKYYDELPTEGNEHGQAFRDVELEKELLIEAQNLGLGAQFGGKYFAHDIRVIRLPRHGASCPVGMGVSCSADRNIKAKINRQGIWIEKLEHNPGKYIPEELRKAGEGEAVRVDLNRPMKEILAQLSQYPVSTRLSLNGTIIVGRDIAHAKLKERMDNGEGLPQYIKDHPIYYAGPAKTPEGYASGSLGPTTAGRMDSYVDQLQAQGGSMIMLAKGNRSQQVTDACKKHGGFYLGSIGGPAAVLAQGSIKSLECVEYPELGMEAIWKIEVEDFPAFILVDDKGNDFFQQIQLTQCTRCVK
Purified protein [1]
  Km: 800 ± 300 µM
  Vmax: 2.3±0.3 umol product/minute/mg enzyme
  kcat/Km: (3±1)⋅10^3 s^-1 M^-1
Purified protein [2]
  Km: 700 ± 100 µM
  Vmax: (7.2±0.4)·10^2 umol product/minute/mg enzyme
  kcat/Km: (1.0±0.2)⋅10^6 s^-1 M^-1

B2: Fumarase B (FumB) from Escherichia coli (enzyme, E. coli, UniProt P14407 1-548, looked up)
chain: MSNKPFIYQAPFPMGKDNTEYYLLTSDYVSVADFDGETILKVEPEALTLLAQQAFHDASFMLRPAHQKQVAAILHDPEASENDKYVALQFLRNSEIAAKGVLPTCQDTGTAIIVGKKGQRVWTGGGDEETLSKGVYNTYIEDNLRYSQNAALDMYKEVNTGTNLPAQIDLYAVDGDEYKFLCVAKGGGSANKTYLYQETKALLTPGKLKNFLVEKMRTLGTAACPPYHIAFVIGGTSAETNLKTVKLASAHYYDELPTEGNEHGQAFRDVQLEQELLEEAQKLGLGAQFGGKYFAHDIRVIRLPRHGASCPVGMGVSCSADRNIKAKINREGIWIEKLEHNPGQYIPQELRQAGEGEAVKVDLNRPMKEILAQLSQYPVSTRLSLTGTIIVGRDIAHAKLKELIDAGKELPQYIKDHPIYYAGPAKTPAGYPSGSLGPTTAGRMDSYVDLLQSHGGSMIMLAKGNRSQQVTDACHKHGGFYLGSIGGPAAVLAQQSIKHLECVAYPELGMEAIWKIEVEDFPAFILVDDKGNDFFQQIVNKQCANCTK
notes: FumB, class I [4Fe-4S] fumarase of E. coli; the gene from plasmid pGS56 was cloned into pET15b; After nickel column purification the enzyme held [3Fe-4S] clusters in only 10-25% of the protein, the rest being apoprotein; also called fumarate hydratase class I, anaerobic; source: E. coli BL21(DE3), pET15b-FumB, purified (nickel sepharose column)
Purified protein [1]
  Km: 800 ± 100 µM
  Vmax: 9.2±0.4 umol product/minute/mg enzyme
  kcat/Km: (12±2)⋅10^3 s^-1 M^-1
Purified protein [2]
  Km: 300 ± 70 µM
  Vmax: (4.9±0.3)·10^2 umol product/minute/mg enzyme
  kcat/Km: (1.6±0.4)⋅10^6 s^-1 M^-1
[3]
  stoichiometry N: 2
